Consider 18 molecules from US20250382355A1 (Merck Sharp & Dohme, published 2025).

The target in assay [1] is T1, SARS-CoV-2 spike protein on recombinant CHO K1 cells (SARS-CoV-2, UniProt P0DTC2 14-1273).
T1 construct: whole, on cells
Nature of the assay: FACS on CHO K1 cells.

Assay [2] concerns the target SARS-CoV spike protein on recombinant CHO K1 cells (SARS-CoV, UniProt P59594 14-1255). Nature of the assay: FACS on CHO K1 cells.
Assay [3] concerns the target T2, MERS spike protein on recombinant CHO K1 cells (MERS-CoV, UniProt K9N5Q8 18-1353).
T2 sequence: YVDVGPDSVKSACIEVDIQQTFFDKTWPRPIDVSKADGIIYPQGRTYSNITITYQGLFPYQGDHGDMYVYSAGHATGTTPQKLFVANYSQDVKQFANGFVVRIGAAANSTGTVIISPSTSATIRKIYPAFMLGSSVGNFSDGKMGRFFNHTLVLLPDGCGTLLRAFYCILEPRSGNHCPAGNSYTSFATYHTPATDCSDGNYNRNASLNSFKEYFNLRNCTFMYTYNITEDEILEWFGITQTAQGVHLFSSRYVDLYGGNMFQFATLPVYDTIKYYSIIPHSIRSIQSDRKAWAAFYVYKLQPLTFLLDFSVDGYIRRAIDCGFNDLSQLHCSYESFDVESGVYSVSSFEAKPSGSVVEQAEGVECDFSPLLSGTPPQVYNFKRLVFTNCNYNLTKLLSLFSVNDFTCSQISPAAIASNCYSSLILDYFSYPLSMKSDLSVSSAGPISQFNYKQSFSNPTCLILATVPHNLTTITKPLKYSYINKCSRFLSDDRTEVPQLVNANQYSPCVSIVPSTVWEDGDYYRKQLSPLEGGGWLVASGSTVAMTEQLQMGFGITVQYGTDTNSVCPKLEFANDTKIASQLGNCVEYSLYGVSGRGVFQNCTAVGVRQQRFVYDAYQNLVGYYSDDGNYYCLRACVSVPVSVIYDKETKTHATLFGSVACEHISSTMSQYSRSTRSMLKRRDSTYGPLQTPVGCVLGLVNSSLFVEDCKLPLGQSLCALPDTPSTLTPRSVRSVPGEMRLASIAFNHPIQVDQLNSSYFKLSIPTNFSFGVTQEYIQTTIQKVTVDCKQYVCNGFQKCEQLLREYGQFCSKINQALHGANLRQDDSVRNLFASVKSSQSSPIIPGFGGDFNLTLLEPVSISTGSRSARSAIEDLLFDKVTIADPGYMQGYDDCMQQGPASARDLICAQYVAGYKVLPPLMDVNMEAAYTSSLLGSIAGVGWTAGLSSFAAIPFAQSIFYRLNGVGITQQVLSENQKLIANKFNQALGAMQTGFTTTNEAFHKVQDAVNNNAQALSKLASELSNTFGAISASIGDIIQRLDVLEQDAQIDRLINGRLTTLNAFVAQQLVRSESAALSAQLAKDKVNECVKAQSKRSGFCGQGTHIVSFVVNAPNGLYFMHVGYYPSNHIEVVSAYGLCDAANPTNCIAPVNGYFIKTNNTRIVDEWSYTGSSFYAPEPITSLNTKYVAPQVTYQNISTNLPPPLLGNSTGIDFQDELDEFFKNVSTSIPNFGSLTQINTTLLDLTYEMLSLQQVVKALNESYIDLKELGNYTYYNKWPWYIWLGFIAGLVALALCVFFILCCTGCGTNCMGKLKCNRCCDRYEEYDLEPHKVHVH
Nature of the assay: FACS on CHO K1 cells.

Assay [4] addresses SARS-CoV spike on rVSV-deltaG-Luc pseudovirus (SARS-CoV, UniProt P59594 14-1236). Nature of the assay: cell-based or functional assay.

B1: 5D7 VHH-Fc (Fc fusion)
chain: QVQLVESGGGLVQAGGSLRLSCAASGRTGSRYIMGWFRQAPGKEREFVAAINWRGDSTYYADSVKGRFTIARDNAKNTAYLQMNSLKPEDTAVYYCVADRGESYYYTRSTEYTYWGQGTQVTVSS
The term EC50 denotes the midpoint of the concentration-response curve. For B1, the results for the EC50 in assay [1] and in assay [2] were 0.12 nM and 0.09 nM, respectively. The binding result in assay [3] is on record as “no binding”. In addition, the “pseudovirus neutralization IC50” value in assay [4] was determined as 220 nM.

B2: 16H7 VHH-Fc (Fc fusion)
chain: QVQLVESGGGLVQAGGSLRLSCAASGRAFSKDTMGWFRQAPGKEREFVAVISASGDSTYYADFVKGRFTISRDNAKNTEYLQMNSLKPEDTAVYHCAADGARAYYSINAHRYSWAYNYWGQGTQVTVSS
B2: the EC50 in assay [1] was determined as 0.31 nM. Also, in assay [3], the binding result is recorded as “no binding”.

B3: 11F5 VHH-Fc (Fc fusion)
chain: QVQLVESGGGAVQAGDSLRLSCTASGRTFSTYAVGWFRQAPGKERELLAAITGSGRNPYYPDSLKGRFTISREYAKLPVYLQMNSLKPEDTAVYYCAARRGAIATMPLDYDHWGQGTQVTVSS
For B3, the EC50 in assay [1] amounted to 0.04 nM. The binding result in assay [3] is “no binding”.

B4: 7A9 VHH-Fc (Fc fusion)
chain: QVQLVESGGGLVQAGGSLRLSCSASGGTASRSAMGWFRQAPGKEREFVAGISRRNSGSTYVADSYEDSVKGRFTISRDNAKNTIYLQMNSLKPEDTAVYYCAAEPTLGWYVPRRSVEYEYWGQGTQVTVSS
On to B4, for which the EC50 in assay [1] stood at 0.08 nM; in assay [2] it was 0.05 nM. In assay [3], the binding result was “no binding”.

B5: S3_44 VHH-Fc (Fc fusion)
chain: QVQLVESGGGLVQPGGSLRLSCARSENNFSINAMAWYRQAPGKQRELVAAITTAGTTNYADSVKGRFTISRDNAKTTIYLQMNSLKPEDTAVYYCNLWAGTRDDLNEYWGQGTQVTVSS
For B5, the figures for the EC50 in assay [1] and in assay [3] were 0.08 nM and 0.11 nM, respectively.

B6: S3_29 VHH-Fc (Fc fusion)
chain: QVQLVESGGGLVQPGGSLRLSCARSENNFSINAMAWYRQAPGKQRELVAAITTSGTTNYADSVKGRFTISRDNAKTTIYLQMNSLKPEDTAVYYCNLWAGTRDDLNEYWGQGTQVTVSS
Turning to B6, the values for the EC50 in assay [1] and in assay [3] were 0.03 nM and 0.05 nM, respectively.

B7: 11F8 VHH-Fc (Fc fusion)
chain: QVQLVESGGGLVQAGGSLRLSCAASGRTVGYYAVGWFRQAPGKERDFVAAISWSGRNTNYADSVTGRFTIFRDNAKNTVDLQMNSLKPEDTAVYYCAADYWNYGSGSEVPNNYDTWGQGTQVTVSS
On to B7, for which the results for the EC50 in assay [1] and in assay [2] were 0.08 nM and 0.09 nM, respectively. Also, the binding result in assay [3] is recorded as “no binding”. The “pseudovirus neutralization IC50” value in assay [4] came to 207 nM.

B8: 1A11 VHH-Fc (Fc fusion)
chain: QVQLVESGGGLVQAGGSLRLSCEVSGSIYSINSMGWYRQAPGKQRELVAGIVSDGRINYADSVKGRFTISRAKNTVYLQMNSLKPEDTAVYYCAADRAFVYAGDYDYLGQGTQVTVSS
In the case of B8, the EC50 turned out to be 0.13 nM in assay [1] and 0.06 nM in assay [2]. The binding result in assay [3] is on record as “no binding”. Further, the “pseudovirus neutralization IC50” value in assay [4] was found to be 0.18 nM.

B9: 15H1 VHH-Fc (Fc fusion)
chain: QVQLVESGGGLAQAGGSLRLSCASSGLIFSGSAMGWFRQAPGKEREFVGVISWNGRTTYADSVKGRFTISRDDAVNMVWLQMNNLKPEDTAVYYCAADHLNYGSGDVNPRTYDYWGQGTQVTVSS
For the molecule B9, the values for the 50% effective concentration (EC50) in assay [1] and in assay [2] were 0.25 nM and 0.14 nM, respectively. In assay [3], the binding result is “no binding”. Moreover, in assay [4], the “pseudovirus neutralization IC50” value worked out at 12.3 nM.

B10: 13C8 VHH-Fc (Fc fusion)
chain: QVQLVESGGGLVQAGGSLRLSCAASGRTVNKYMTGWFRQTPGKEREFVASIDWSSTTTHYANSVKGRFTISRDKVKNTVYLQMNGLKPEDTAVYYCAAHQDSSYGYTILPIDYDSWGQGTQVTVSS
Take B10: the half-maximal effective concentration (EC50) in assay [1] was 0.22 nM; in assay [2] it was 0.11 nM. Besides, the binding result in assay [3] was “no binding”. Further, the “pseudovirus neutralization IC50” value in assay [4] was 4.98 nM.

B11: 20D11 VHH-Fc (Fc fusion)
chain: QVQLVESGGGLVQAGGSLRLSCAASGRTSSIYSVGWFRQAPGKERELVAGITWSGGTTYYSDSVKGRFTISRDNAKNTVNLQMNNLKPEDTAIYYCAVDRYSMTMSARDYDYWGQGTQVTVSS
Turning to B11, in assay [1], the EC50 amounted to 0.08 nM. Further, the binding result in assay [3] is on record as “no binding”.

B12: 14F3 VHH-Fc (Fc fusion)
chain: QVQLVESGGGLVQAGGSLRLSCAASGRTSSIYGVGWFRQAPGKERELVALITWSGGTTYYSDSVKGRFTISKDNAKNTVFLQMNNLKPEDTAIYYCAVDTYSMTMSARDYEYWGQGTQVTVSS
With B12, in assay [1], the EC50 was 0.06 nM. Besides, in assay [3], the binding result is “no binding”.

B13: 19B8 VHH-Fc (Fc fusion)
chain: QVQLVESGGGLVQAGGSLRLSCAASGRTFTNYAMGWFRQAPGKEREFVAAISWSGGGTNYADSVKGRFTISRDNAKNTVYLQMNSPKPEDTAVYYCATTLGYYGSSSRLYEYWGQGTQVTVSS
For the molecule B13, in assay [1], the EC50 was determined as 0.04 nM. In addition, in assay [3], the binding result is reported as “no binding”. The “pseudovirus neutralization IC50” value in assay [4] is 42 nM.

B14: 8E9 VHH-Fc (Fc fusion)
chain: QVQLVESGGGLVEAGGSLRLSCVASGSSSSINAMGWYRQAPGKQRELVASISHDGETKYANSVKGRFTISRGNAKNTIYLQMNSLKPEDTAVYYCVGDVAWVVVAGEYDYWGQGTQVTVSS
As for B14, the values for the EC50 in assay [1] and in assay [2] were 0.31 nM and 0.17 nM, respectively. Moreover, the binding result in assay [3] is “no binding”. For the same molecule, the “pseudovirus neutralization IC50” value in assay [4] was found to be 2.94 nM.

B15: 3D4 VHH-Fc (Fc fusion)
chain: QVQLVESGGGLVQPGGSLRLSCAASGFTLDLNSIGWFRQAPGKEREGVSCISPSGSRMHYADSVKGRFTISRDNAKNTVYLQMNSLKPEDTAVYYCATGSPSYHYCSMYGLEYDSWGQGTQVTVPS
Take B15: the EC50 in assay [1] is 0.15 nM. In addition, the binding result in assay [3] is on record as “no binding”. Besides, in assay [4], the “pseudovirus neutralization IC50” value was 0.4 nM.

B16: 19C10 VHH-Fc (Fc fusion)
chain: QVQLVESGGGLVQPGGSLRLSCAASGFTLDLNSIGWFRQAPGKEREGVSCISPSASSTHYADSVKGRFTISRDNAKNTVYLQMNSLKPEDTAVYYCATGTPSYHYCSMYGLEYDDWGQGTQVTVSS
Consider B16, for which the EC50 in assay [1] turned out to be 0.17 nM. In assay [3], the binding result is “no binding”. In addition, the “pseudovirus neutralization IC50” value in assay [4] stood at 0.45 nM.

B17: 19E10 VHH-Fc (Fc fusion)
chain: QVQLVESGGGLVQPGGSLRLSCVASGSTISINSMGWYRQAPGKAREMVATITNDGPIKYADPVKGRFTISRDNPKNTVYLQMNSLKPEDTAVYYCVADRAYWLAGEWEYWGQGTQVTVSS
As to B17, the EC50 stood at 0.14 nM in assay [1] and 0.08 nM in assay [2]. Besides, the binding result in assay [3] is reported as “no binding”. In assay [4], the “pseudovirus neutralization IC50” value was determined as 0.12 nM.

B18: 15H7 VHH-Fc (Fc fusion)
chain: QVQLVESGGRLVQAGGSLRLSCAAPGRTFRNLTLGWFRQAPGKEREFVASTSWPDDEMTYYTDSVKGRFTISRDNAKNTVYLQMNSLKPEDTAVYYCAAASWSGRSTLSYDYDYWGQGTQVTVST
Turning to B18, the figures for the EC50 in assay [1] and in assay [2] were 0.28 nM and 0.14 nM, respectively. Moreover, in assay [3], the binding result was “no binding”. Besides, the “pseudovirus neutralization IC50” value in assay [4] came to 1.71 nM.
